Changes are numbered by the printed parent chain.

Test [1] addresses T1, full-length human SIRPβ1 (NP_006056.2) on cells (human, UniProt O00241 30-398).
T1 construct: also called β1 WT
The test can be described thus: flow cytometry, Expi-CHO cells. As to the method: These cells are blocked with donkey IgG and incubated on ice with increasing concentrations of antibodies for 60 minutes, washed and stained with AF647-conjugated donkey F(ab′)₂ anti-human IgG antibodies. Stained cells are washed, fixed, and analyzed by flow cytometry. Median fluorescent intensity is determined and used as a measure of antibody binding.
(In general: Flow cytometry measures light scatter and fluorescence of single cells or particles in a stream.)

In test [2] the target is T2, full-length human SIRPγ EN→DD on Expi-CHO cells (human, UniProt Q9P1W8 29-387).
T2 construct: the entry already carries the change (PENV to PDDV)
T2 chain: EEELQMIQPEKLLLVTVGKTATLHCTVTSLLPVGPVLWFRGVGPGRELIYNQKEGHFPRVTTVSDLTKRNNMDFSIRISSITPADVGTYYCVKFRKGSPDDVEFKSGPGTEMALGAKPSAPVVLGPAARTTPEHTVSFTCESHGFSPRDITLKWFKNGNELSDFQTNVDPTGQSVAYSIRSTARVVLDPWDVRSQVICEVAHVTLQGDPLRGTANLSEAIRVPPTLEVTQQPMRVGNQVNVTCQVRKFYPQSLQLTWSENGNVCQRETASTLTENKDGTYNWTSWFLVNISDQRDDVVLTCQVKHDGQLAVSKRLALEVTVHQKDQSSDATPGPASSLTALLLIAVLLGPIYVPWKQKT
The test can be described thus: flow cytometry, Expi-CHO cells. As to the method: (§1) Expi-CHO parental cells are transduced with lentiviruses containing either full-length wild-type human SIRPγ ([…]) or full-length human SIRPγ with amino acid point mutations (Table 64) and sorted to achieve matching expression levels. These cells are blocked with donkey IgG and incubated on ice with increasing concentrations of antibodies for 60 minutes, washed and stained with AF647-conjugated donkey F(ab′)₂ anti-human IgG antibodies. Stained cells are washed, fixed, and analyzed by flow cytometry. Median fluorescent intensity is determined and used as a measure of antibody binding.

Test [3] deals with T3, full-length human SIRPγ N→D on Expi-CHO cells (human, UniProt Q9P1W8 29-387).
T3 construct: the entry already carries the change (PENV to PEDV)
The test can be described thus: flow cytometry, Expi-CHO cells. Here is the method: as §1

For test [4], the target named is T4, full-length human SIRPαV2 (CAA71403.1) on cells (human, UniProt P78324 31-504).
T4 construct: one molecule for CHO-K1 and Expi-CHO transfectants (CAA71403.1) and for endogenous V2 on THP-1 cells and on CD14+ monocytes of V2/V2 donors; also called CHO-hSIRPαV2; αV2 WT
The test can be described thus: flow cytometry, competition with CD47 tetramer, monocytes V2V2. As to the method:
Cells are washed, fixed, and analyzed by flow cytometry. Median fluorescent intensity of CD14+gated population is determined and used as a measure of CD47 binding.

In test [5] the target is T5, full-length human SIRPαV1 (NP_542970.1) on cells (human, UniProt P78324 31-504).
T5 construct: one molecule for CHO-K1 and Expi-CHO transfectants (NP_542970.1) and for endogenous V1 on U-937 cells and on CD14+ monocytes of V1/V1 donors; also called CHO-hSIRPαV1; αV1 WT
The test can be described thus: flow cytometry, U-937 cells (endogenous V1). Here is the method: Antibody binding to human monocytic cell lines homozygous for the V1-allele (U-937) or the V2-allele (THP-1) of SIRPα is assessed. U-937 or THP-1 cells are blocked with donkey IgG and incubated on ice with increasing concentrations of antibodies for 60 minutes, washed and stained with AF647-conjugated donkey F(ab′)₂ anti-human IgG secondary reagent. Cells are washed, fixed, and analyzed by flow cytometry. Median fluorescent intensity is determined and used as a measure of antibody binding.

The target of test [6] is T4, full-length human SIRPαV2 (CAA71403.1) …. Briefly: flow cytometry, CHO-K1 cells. As to the method:
(§2) Antibody binding to cells expressing SIRPα is evaluated by flow cytometry. CHO-K1 parental cells (negative control), CHO-K1 cells expressing full-length human SIRPαV1 (NP_542970.1) or CHO-K1 cells expressing full-length human SIRPαV2 (CAA71403.1) are blocked with donkey IgG and incubated on ice with increasing concentrations of antibodies for 60 minutes, washed and stained with AF647-conjugated donkey F(ab′)₂ anti-human IgG secondary reagent. Cells are washed, fixed, and analyzed by flow cytometry. Median fluorescent intensity is determined and used as a measure of antibody binding.

Test [7] deals with T5, full-length human SIRPαV1 (NP_542970.1) …. Briefly: flow cytometry, CHO-K1 cells. As to the method:
as §2

For test [8], the target named is T6, full-length human SIRPβL (NP_001129316.1) on cells (human, UniProt Q5TFQ8 30-398).
T6 construct: one molecule for U937 SIRPα-KO transfectants (NP_001129316.1) and Expi-CHO transfectants (Q5TFQ8); also called SIRPβ1v3; βL WT
Briefly: flow cytometry, Expi-CHO cells. The essentials:
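Lentivirus-transduced Expi-CHO cells expressing wild-type or single point-mutant SIRPβL, sorted to matched expression, blocked with donkey IgG and incubated on ice 60 min with increasing antibody concentrations. Detection with AF647 anti-human IgG F(ab′)₂ after washing and fixation; median fluorescence intensity taken as binding.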

B1: Antibody A (antibody, human IgG1, kappa, L234A L235A)
heavy: not shown
light: DIQMTQSPSSLSASVGDRVTITCRASQDINNYLAWFQQKPGKAPKSLIYTASSLHSGVPSKFSGSGSGTDFTLTISSLQPEDFATYYCQQYVSYPYTFGQGTKLEIKRTVAAPSVFIFPPSDEQLKSGTASVVCLLNNFYPREAKVQWKVDNALQSGNSQESVTEQDSKDSTYSLSSTLTLSKADYEKHKVYACEVTHQGLSSPVTKSFNRGEC
Consider B1, for which the EC50 in test [1] was determined as 1.6 nM; in test [2], 0.6 nM; in test [3], 0.4 nM.

B2: Antibody C (antibody, human IgG1, kappa, L234A L235A, V domains shown)
VH: EVQLVESGGGLVQPGGSLRLSCAASGFTFSSYDMHWVRQATGKGLEWVSVIGIAGDTYYPGSVKGRFTISRENAKNSLYLQMNSLRVGDTAVYYCARGGSWDDAFDIWGQGTMVTVSS
VL: DIQMTQSPSSLSASIGDKVTITCRASQDINNYLAWFQQKPGKAPKSLIYTASSLQSGVPSKFSGSGSGTDFTLTISSLQPEDFATYYCQQYVSYPYTFGQGTKLEIKR
Consider B2, for which the IC50 in test [4] is 0.05 nM. Further, the EC50 in test [1] amounted to 0.2 nM; in test [5], 0.6 nM; in test [6] it was 0.5 nM; in test [7] it was 1 nM.

B3: Antibody A10 (antibody, human IgG1, kappa, L234A L235A)
heavy: not shown
light: B1 light
B3: the EC50 in test [1] came out at 1.6 nM; in test [2] it was 0.7 nM; in test [3] it was 0.5 nM.

B4: Anti-SIRPα antibody KWAR23 (antibody, V domains shown)
VH: EVQLQQSGAELVKPGASVKLSCTASGFNIKDYYIHWVQQRTEQGLEWIGRIDPEDGETKYAPKFQDKATITADTSSNTAYLHLSSLTSEDTAVYYCARWGAYWGQGTLVTVSS
VL: QIVLTQSPAIMSASPGEKVTLTCSASSSVSSSYLYWYQQKPGSSPKLWIYSTSNLASGVPARFSGSGSGTSYSLTISSMEAEDAASYFCHQWSSYPRTFGAGTKLELK
With B4, the IC50 in test [4] worked out at 0.11 nM. For the same molecule, the EC50 turned out to be 0.2 nM in test [1]; 0.3 nM in test [2]; 0.3 nM in test [3]; 0.5 nM in test [5]; 1 nM in test [8]; 0.5 nM in test [6]. The molecule further displayed a concentration giving a half-maximal response (EC50) in test [7] of 1 nM.

B5: Antibody D (antibody, human IgG1, kappa, L234A L235A, V domains shown)
VH: B2 VH with Y32F, A40P, V50T, Y59F, V87A, S100N, F105L
VL: B2 VL with I15V, K18R, V92N, S93T
In test [4], B5 showed an IC50 of 0.05 nM. The EC50 was 0.2 nM in test [1]; 0.3 nM in test [2]; 0.3 nM in test [3]; 0.5 nM in test [5]; 0.5 nM in test [6]; 0.7 nM in test [7].

B6: Antibody E (antibody, human IgG1, kappa, L234A L235A)
heavy: not shown
light: DIVMTQSPLSLPVTPGEPASISCKSSQSLLYSNGYNYLDWYLQRPGQSPQLLIYLGSNRASGVPDRFSGSGSGTDFTLKISRVEAEDVGVFYCMQALQTPLTFGGGTKVEIKRTVAAPSVFIFPPSDEQLKSGTASVVCLLNNFYPREAKVQWKVDNALQSGNSQESVTEQDSKDSTYSLSSTLTLSKADYEKHKVYACEVTHQGLSSPVTKSFNRGEC
With B6, the EC50 in test [5] is 0.5 nM; in test [8], 1 nM; in test [6], 0.9 nM; in test [7], 2 nM.

B7: Antibody E22 (antibody, human IgG1, kappa, L234A L235A, V domains shown)
VH: QVQLQESGPGLVKPSETLSLTCTVSGGSIRDYYWSWIRQPPGKGLEWIGFIYYNGRTFYQSSLKSRVTISLDTSKNQFSLKMTSVTAADTAVYYCARVRAYSGIGLDGTDVWGQGTTVTVSS
VL: DIVMTQSPLSLPVTPGEPASISCRSSQSLLYSTGYTYLDWYLQRPGQSPQLLIYGGSSRASGVPDRFSGSGSGTDFTLKISRVEAEDVGVFYCGQALQTPLTFGQGTKVEIKR
On to B7, for which the IC50 in test [4] is 0.3 nM. Further, the EC50 in test [8] worked out at 1.2 nM.

B8: Antibody B (antibody, human IgG1, kappa, L234A L235A, V domains shown)
VH: QVQLVQSGAEVKKPGASVKVSCKASGYTFTGNYMHWVRQAPGQGLEWMGWINPNSGGTNYAQKFQGRVTMTRDTSISTAYMELSRLRSDDTAVYYCVSGSGWYENYYYYGMDVWGQGTTVTVSS
VL: DIQMTQSPSSVSASVGDRVTITCRASQGISSWLAWYQQKPGKAPKLLIYAESSLQSGVPSRFSGSGSGTDFTLTISSLQPEDFATYYCQQANSFPLTFGGGTKVEIKR
B8: the half-inhibitory concentration (IC50) in test [4] came to 4.6 nM. For the same molecule, the EC50 in test [2] came out at 5.3 nM; in test [3], 4.8 nM; in test [5], 21.1 nM; in test [6], 14.2 nM; in test [7], 12 nM.

One may read the EC50 as the concentration giving half of the maximal effect. Usually IC50 stands for the midpoint of a concentration-inhibition curve. Read a low IC50 as inhibition by little substance.

The values are drawn from patent publication US20230012273A1 (Boehringer Ingelheim, published 2023).
